In patent US20180015177A1 (Genentech, published 2018):
Residue numbers refer to the chain shown, from its start. “And” between values parts separate entries of the source, which are not always exact repeats. Identical values can stand only once.

How the values were obtained:
[1] = biological target: human Ly6E, N-terminal gD-tagged, stably expressed on PC3 cells (human) (UniProt Q16553); experiment: Scatchard analysis on PC3 cells expressing gD-tagged human Ly6E (binding to the gD tag)
[2] = biological target: Cynomolgus monkey Ly6E, N-terminal gD-tagged, stably expressed on PC3 cells (cynomolgus monkey); experiment: Scatchard analysis on PC3 cells expressing gD-tagged cyno Ly6E (binding to the gD tag)
[3] = biological target: T1, Cynomolgus monkey Ly6E, N-terminal gD-tagged, stably expressed on PC3 cells (cynomolgus monkey, UniProt Q16553 21-101 (human entry)); experiment: Scatchard analysis (125I antibody) on PC3 cells expressing gD-tagged cyno Ly6E
T1 construct: also called cyno Ly6E; not shown: N-terminal gD tag of the retroviral vector
T1 chain: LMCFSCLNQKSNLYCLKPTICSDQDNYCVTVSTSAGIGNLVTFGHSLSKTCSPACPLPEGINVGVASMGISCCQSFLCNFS
Method: (§1) A scatchard analysis was performed to determine affinity and binding sites per cell for the antibodies. Hu.9B12v12 antibody was iodinated several times using the Iodogen method. […] Competition reaction mixtures of 50 μL containing a fixed concentration of iodinated antibody and decreasing concentrations of unlabeled antibody were placed into 96-well plates. The PC3 cells stably transduced with retrovirus to express either recombinant human or Cynomolgus monkey gD tagged Ly6E were detached from flasks using Sigma Cell Dissociation Solution and were washed with binding buffer (DMEM with 2% FBS, 50 mM HEPES, pH 7.2, and 0.1% sodium azide). The washed cells were added at an approximate density of 200,000 cells in 0.2 mL of binding buffer to the 96-well plates containing the 50-μL competition reaction mixtures. […] The filters were counted on a Wallac Wizard 1470 gamma counter (PerkinElmer Life and Analytical Sciences; Wellesley, Mass.). The binding data were evaluated using New Ligand software (Genentech), which uses the fitting algorithm of Munson and Rodbard (1980) to determine the binding affinity of the antibody.

[4] = biological target: T2, human Ly6E, N-terminal gD-tagged, stably expressed on PC3 cells (human, UniProt Q16553 21-101); experiment: cell-based competitive binding on human Ly6E PC3 cells; competitor mouse 9B12
T2 construct: GPI-linked protein on cells; also called hu Ly6E; human Ly6E transfected PC3 cells; not shown: N-terminal gD tag of the retroviral vector
T2 sequence: T1 chain with T33A, L57I, I61V
Method: (§2) Cell-based Ly6E competitive binding assay—Cultured human Ly6E transfected PC3 cells were harvested with 5 mM EDTA containing PBS. Cells were washed with PBS and added onto a 384-well high binding plate (Meso Scale Discovery Technology (MSD); Gaithersburg, Md.). The plate was kept at room temperature for 1 hr to allow cells to adhere to the plate as described (See Lu, Y., Wong, W. L. & Meng, Y. G. A high throughput electrochemiluminescent cell-binding assay for therapeutic anti-CD20 antibody selection. Journal of Immunological Methods 314, 74-79 (2006)). The plate with cells was blocked with fetal bovine serum containing PBS for 1 hr and then cooled on ice. Serially diluted antibody variant samples were mixed with equal volume of fixed concentration of mouse 9B12 Ab. The mixtures were added onto the plates and incubated at 4° C. with gentle shaking for 1 hr.
(§3) The plate was then washed with cold PBS and an anti-mouse IgG Fc specific Ab (Jackson ImmunoReserach; West Grove, Pa.) labeled with sulfo-ruthenium tag was added to the plate as the detection reagent. The plate was incubated at 4° C. with gentle shaking for 1 hr. After incubation the plate was washed again, and MSD read buffer (MSD; Gaithersburg, Md.) was added onto the wells. The plate was read with a MSD SectorÒ imager 6000. The data was graphed and analyzed using KaleidaGraph software (Synergy Software; Reading, Pa.) to determine IC₅₀ values.

[5] = biological target: T2, human Ly6E, N-terminal gD-tagged, …; experiment: cell-based Ly6E competitive binding assay, human Ly6E; competitor mouse 9B12
Method: as §2
as §3, with “The plate was incubated at 4° C. with gentle shaking for 1 hr.” left out

[6] = biological target: T1, Cynomolgus monkey Ly6E, N-terminal …; experiment: Scatchard analysis on PC3 cells expressing cyno Ly6E
Method: as §1

[7] = biological target: T1, Cynomolgus monkey Ly6E, N-terminal …; experiment: cell-based Ly6E competitive binding assay, cyno Ly6E; competitor mouse 9B12
[8] = biological target: T3, Hu Ly6E (immobilized on CM5 chip for SPR) (human, UniProt Q16553 21-101); experiment: SPR (Biacore T100), Hu Ly6E immobilized, IgG injected, single cycle kinetics, apparent KD
T3 construct: also called human Ly6E
T3 sequence: T1 chain with T33A, L57I, I61V
Method: SPR Affinity Determination—Affinity determinations were performed by surface plasmon resonance using single cycle kinetics on a BIAcore™-T100. Hu Ly6E was immobilized via EDC/NHS chemistry according to supplier's instructions (˜20 response units (RU)) on a CM5 chip. For kinetic measurement, three-fold serial dilution of anti-Ly6E IgG (5 to 405 nM) in PBST were injected with 200 s for association & 300 s for dissociation at a flow rate of 30 ul/min at 25° C. Binding response was corrected by subtracting both the RU from a blank flow cell and from buffer run on the same flow cell. A 1:1 Languir model of simultaneous fitting of kₒₙ and koff was used to measure the apparent KD.

[9] = biological target: T2, human Ly6E, N-terminal gD-tagged, …; experiment: Scatchard analysis on PC3 cells expressing human Ly6E
Method: as §1

[10] = biological target: T2, human Ly6E, N-terminal gD-tagged, …; experiment: Scatchard analysis (125I antibody) on PC3 cells expressing gD-tagged human Ly6E
Method: as §1

[11] = biological target: T2, human Ly6E, N-terminal gD-tagged, …; experiment: cell-based Ly6E competitive binding assay on human Ly6E PC3 cells; competitor mouse 9B12
Method: as §2, §3

Which Kd [1] does the source give for anti-gD mAb (antibody) here?
Its Kd is 1.1 nM.

What about the Sites/Cell [1] of the same molecule?
The Sites/Cell was 13000 sites/cell.

And the Kd [2]?
The Kd was 2 nM.

What about the Sites/Cell [2] of the same molecule?
The Sites/Cell was 53000 sites/cell.

B1: hu9B12.v12 (antibody, V domains shown)
VH: EVQLVESGPALVKPTQTLTLTCTVSGFSLTGYSVNWIRQPPGKALEWLGMIWGDGSTDYNSALKSRLTISKDTSKNQVVLTMTNMDPVDTATYYCARDYYFNYASWFAYWGQGTLVTVSS
VL: DIQMTQSPSSLSASVGDRVTITCSASQGISNYLNWYQQKPGKTVKLLIYYTSNLHSGVPSRFSGSGSGTDYTLTISSLQPEDFATYYCQQYSELPWTFGQGTKVEIK
notes: Expressed and tested as IgG; Iodinated (125I) tracer plus unlabeled antibody in the Scatchard analysis; also called humanized anti-Ly6E antibody
What does the source list for B1?
Kd [3]: 7.9 nM; IC50 [4]: 15 nM and 16 nM; Kd [5]: 15 to 19 nM; Kd [6]: 14 nM; Kd [7]: 16 to 40 nM; Kd [8]: 7 nM; Kd [9]: 4 nM; Kd [10]: 4 nM

B2: humanized 9B12 variant v8 (antibody, V domains shown)
VH: EVQLVESGGGLVQPGGSLRLSCAASGFSLTGYSVNWVRQAPGKGLEWVGMIWGDGSTDYNSALKSRFTISRDNSKNTLYLQMNSLRAEDTAVYYCARDYYFNYASWFAYWGQGTLVTVSS
VL: B1 VL with Y71F
notes: IgG. k1 graft 43+44 / VH3 graft; Residue change derived
Does B2 bind [11]?
Result: no binding

B3: humanized 9B12 variant v3 (antibody, V domains shown)
VH: B2 VH
VL: B1 VL with T43A, V44P, Y71F
notes: Light chain changes derived
Does B3 bind [11]?
Result: no binding

B4: humanized 9B12 variant v11 (antibody, V domains shown)
VH: B1 VH with V24F
VL: B1 VL
notes: IgG. k1 graft 43+44+71 / VH2 graft + 49; Residue change derived
Does B4 bind [11]?
Result: no binding

B5: humanized 9B12 variant v6 (antibody, V domains shown)
VH: B1 VH with V24F
VL: B1 VL with Y71F
notes: IgG. k1 graft 43+44 / VH2 graft + 49; Residue changes derived
Does B5 bind [11]?
Result: no binding

B6: humanized 9B12 variant v13 (antibody, V domains shown)
VH: B2 VH
VL: B1 VL
notes: IgG. k1 graft 43+44+71 / VH3 graft
Does B6 bind [11]?
Result: no binding

B7: chimeric 9B12 (antibody, V domains shown)
VH: QVQLKESGPGLVAPSQSLSLTCTVSGFSLTGYSVNWVRQPPGKGLEWLGMIWGDGSTDYNSALKSRLTISKDNSKSQVFLKMNSLQTDDTARYYCARDYYFNYASWFAYWGPGTLVTVSA
VL: DIQMTQTTSSLSASLGDRVTISCSASQGISNYLNWYQQKPDGTVKLLIYYTSNLHSGVPSRFSGSGSGTDYSLTISNLEPEDIATYYCQQYSELPWTFGGGTKVEIK
notes: Chimeric IgG with the mouse 9B12 variable domains; also called ch9B12; Ch 9B12
What does the source list for B7?
Kd [3]: 2.9 nM; IC50 [4]: 3 nM and 6 nM and 5 nM; Kd [5]: 3 to 6 nM; Kd [6]: 4 nM; Kd [7]: 5 to 7 nM; Kd [8]: 6 nM; Kd [9]: 4 nM; Kd [10]: 2 nM
